According to patent US10391180B2, “Self-assembling complex for targeting chemical agents to cells” (CEDARS-SINAI MEDICAL CENTER, priority 2007, dated 2019):

What was measured:
[1] = HerDox stability under different storage temperatures; type: physicochemical; details: up to 12 days
Experimental: FIGS. 6 (A)-(B) illustrates conjugate stability under different storage conditions, or in serum. As illustrated in FIG. 6 (A), HerDox was incubated up to 12 days at 4° C., RT, or 37° C. Samples were filtered through ultrafiltration spin columns every other day, and retentate and filtrate absorbances measured at 480 nm to determine relative Dox retention or release from conjugates, respectively. As illustrated in FIG. 6 (B), to mimic extended exposure to cells in culture medium, HerDox immobilized on Ni-NTA beads were incubated with bovine serum in DMEM for the indicated times at 37° C. before each sample was pelleted. Absorbance of supernatants (Filtrates) and bead eluates (Retentates) were measured at 480 nm to detect Dox. Relative Dox release or retention in serum is expressed as normalized to control (corresponding sample lacking serum). N=3 per time point.
The inventors tested the stability of HerDox over 12 days under different storage temperatures: 4° C., room temperature, or 37° C. On each day, a sample underwent ultrafiltration, then filtrates and retentates were measured to determine whether any Dox was released from the complex. […] The inventors also examined HerDox stability in serum-containing media at 37° C. […] Dox retention in the conjugate was also assessed by eluting the conjugate from the beads at each time point.

[2] = HerDox stability in cell culture media, agarose gel; type: in vitro ADME; details: serum-containing culture media, 37° C.
Experimental: FIGS. 9 (A)-(C) illustrates targeting in a mixed cell culture. As illustrated in FIG. 10 (A), equal numbers of MDA-MB-435 and GFP(+) MDA-MB-231 cells were treated with Dox alone (0.5 uM), Her-Dox (containing 0.5 uM Dox), or HerPBK10 (1.2 ug/well, equivalent to HerPBK10 in HerDox). Wells were assayed for GFP fluorescence (to determine relative MDA-MB-231 number) and crystal violet staining (to determine total cell number). As illustrated in FIG. 9 (B), cell survival was determined by calculating the relative doubling time (DT) of experimental (exp) cells normalized by control (con) cells based on the crystal violet stains (total cells) and GFP fluorescence (MDA-MB-231 cells). The DT of MDA-MB-435 was determined by subtracting the DT of MDA-MB-231 from the total cell DT. Relative survival is shown for Day 2 of treatment. As illustrated in FIG. 9 (C), there is stability in cell culture. Aliquots of culture media containing HerDox (after incubation for the indicated times at 37° C.) were electrophoresed on a 2% agarose gel. HerDox incubated at 37° C. in HEPES-buffered saline, lacking serum, was processed in parallel. Dox fluorescence was visualized by UV excitation. Free Dox (Dox alone) is not retained in the gel whereas Dox incorporated in HerDox is. […]

[3] = system: SKBR3, MDA-MB-435, MDA-MB-453, HeLa, MDA-MB-231; test: Cytotoxicity dose curves on lines displaying differential HER2 (CD50); type: cell-based; details: range of HerDox doses
Experimental: (§1) FIGS. 17 (A)-(B) illustrates relative cell surface HER subunit levels and cytotoxicity on cell types. FIG. 17 (A) depicts a graph of relative cell surface HER subunit levels as measured by ELISA. Cells were incubated with anti-HER subunit antibodies followed by HRP-conjugated secondary antibodies using standard procedures. Relative cell numbers were measured by crystal violet staining and quantified by measuring crystal violet absorbance at 590 nm. Relative subunit levels are reported as the ELISA signal of each cell population normalized by the relative cell number, or Abs 450 run/590 nm. FIG. 17 (B) depicts toxicity to cells displaying differential HER2. Cytotoxicities from a range of HerDox doses were assessed on each cell line by metabolic assay and confirmed by crystal violet stain. CD50 values shown in log scale were determined by non-linear regression analyses of HerDox dose curves using a scientific graphing program and confirmed using a calculator. The relative HER2 level of each cell line is shown next to each CD50 value.
The inventors measured cell surface levels of HER subunits on various cell lines and types described herein, as previously described levels may not reflect the actual levels in the available cells used. The inventors acquired the indicated cell lines from ATCC and the NIH/NCI and profiled these with respect to HER subunit levels (FIG. 17 (A)). […]

[4] = system: MDA-MB-435; test: Cytotoxicity on cell lines (Table I); type: cell-based; details: 50% reduction in cell survival, mean ± 1 SD, read-out: EC50** (uM HerDox)
Experimental: as §1

[5] = system: SKOV3; test: Cytotoxicity on cell lines (Table I); type: cell-based; details: 50% reduction in cell survival, mean ± 1 SD, read-out: EC50** (uM HerDox)
Experimental: as §1

B1: HerDox: non-covalent complex of HerPBK10, a small double-stranded nucleic acid and intercalated Dox (conjugate)
chain: LPPRLKEMKSQESAAGSKLVLRCETSSEYSSLRFKWFKNGNELNRKNKPQNIKIQKKPGKSELRINKASLADSGEYMCKVISKLGNDSASANITIVESNEIITGMPASTEGAYVSSESPIRISVSTEGANTSSSTSTSTTGTSHLVKCAEKEKTFCVNGGECFMVKDLSNPSRYLCKCQPGFTGARCTENVPMKVQNQEKAEELYMRRAAMYEEGPPPSYESVVSAAPVAAALGSPFDAPLDPPFVPPRYLRPTGGRNSIRYSELAPLFDTTRVYLVDNKSTDVASLNYQNDHSNFLTTVIQNNDYSPGEASTQTINLDDRSHWGGDLKTILHTNMPNVNEFMFTNKFKARVMVSRLPTKDNQVELKYEWVEFTLPEGNYSETMTIDLMNNAIVEHYLKVGRQNGVLESDIGVKFDTRNFRLGFDPVTGLVMPGVYTNEAFHPDIILLPGCGVDFTHSRLSNLLGIRKRQPFQEGFRITYDDLEGGNIPALLDVDAYQASLKDDTEQGGGGAGGSNSSGSGAEENSNAAAAAMQPVEDMNDHAIRGDTFATRAEEKRAEAEAAAEAAAPAAQPEVEKPQKKPVIKPLTEDSKKRSYNLISNDSTFTQYRSWYLAYNYGDPQTGIRSWTLLCTPDVTCGSEQVYWSLPDMMQDPVTFRSTRQISNFPVVGAELLPVHSKSFYNDQAVYSQLIRQFTSLTHVFNRFPENQILARPPAPTITTVSENVPALTDHGTLPLRNSIGGVQRVTITDARRRTCPYVYKALGIVSPRVLSSRTFKKKKKKKKKK
modifications: left off: small tags and cut ends
notes: non-covalent complex of HerPBK10, a small double-stranded nucleic acid and intercalated Dox
product remaining intact ([1]; 4° C.): 100%
effect of storage on Dox incorporation ([1]; room temperature and 37° C.): enhance the incorporation of the drug
loss of Dox fluorescence from conjugate over time [2]: no such loss from HerDox is detectable
relation of CD50 to cell surface HER2 level [3]: inversely correlates with cell surface HER2 level
EC50 [4]: 0.74 ± 0.07 µM
EC50 [5]: 0.18 ± 0.03 µM
